From US20230174644A1 come the findings set out here.

This experiment concerns the target Recombinant nucleolin fused with a polyhistidine (His)6 tag, made in Pichia GS115 (human) (UniProt P19338). Kind of experiment: SPR (BIAcore 2000), ES amine-coupled on a CM5 chip, NL 62.5-500 nM in flow, 25° C., 1:1 Langmuir model.
Chain of UniProt P19338 (P19338 other isoform, or with tags, fused parts or gaps limits assumed): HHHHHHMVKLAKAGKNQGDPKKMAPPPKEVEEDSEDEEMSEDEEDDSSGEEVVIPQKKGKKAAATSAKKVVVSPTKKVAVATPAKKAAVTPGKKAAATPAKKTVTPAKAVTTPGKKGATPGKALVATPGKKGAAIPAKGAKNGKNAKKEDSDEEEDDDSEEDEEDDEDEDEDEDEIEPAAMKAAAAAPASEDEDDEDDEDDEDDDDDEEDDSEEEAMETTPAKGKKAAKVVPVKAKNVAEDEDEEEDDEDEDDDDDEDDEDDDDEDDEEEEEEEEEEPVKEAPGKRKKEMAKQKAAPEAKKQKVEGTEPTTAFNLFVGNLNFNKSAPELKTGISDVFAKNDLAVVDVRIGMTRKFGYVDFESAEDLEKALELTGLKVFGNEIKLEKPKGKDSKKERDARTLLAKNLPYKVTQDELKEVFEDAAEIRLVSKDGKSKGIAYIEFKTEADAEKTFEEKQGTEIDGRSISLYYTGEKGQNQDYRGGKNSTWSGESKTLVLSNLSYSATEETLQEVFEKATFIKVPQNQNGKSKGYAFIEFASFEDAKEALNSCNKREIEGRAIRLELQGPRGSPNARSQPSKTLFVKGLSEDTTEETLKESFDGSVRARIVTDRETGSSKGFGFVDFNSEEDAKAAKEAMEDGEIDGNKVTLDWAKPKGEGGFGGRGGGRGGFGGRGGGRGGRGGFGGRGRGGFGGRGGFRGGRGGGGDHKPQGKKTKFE

Usually Kd stands for a measure of binding affinity in units of concentration. As to “Endostatin (recombinant, with N-terminal His-tag) (from UniProt P39060 1572-1754) (ligand)”, the Kd amounted to 23.2 nM.
